The supplement of paper PMC9170038

Tested on: K4 kissing-loop RNA reporter
Experiment: apparent KD of K4 kissing-loop reporter; higher = weaker reporter binding
Settings: Eterna round: R107
Protocol: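 RNA-MaP round R107: designed RNA switches with theophylline, tryptophan, arginine or FMN aptamers are transcribed on-chip within common flanks. They are titrated with a labelled K4 kissing-loop RNA reporter in RNA-MaP buffer (100 mM Tris pH 7.5, 80 mM KCl, 4 mM MgCl2), without ligand or with the indicated ligand. Median apparent KD per design.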

[1] = input ligand: theophylline 20 uM
[2] = input ligand: tryptophan 2.4 mM
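Also: bound reporter read as fluorescence of individual clusters on recovered sequencing chips by microscopy, with normalized cluster intensities fitted with a binding model.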

Sequence	apparent KD of K4 kissing-loop reporter (input ligand: FMN 200 uM) [nM]	apparent KD of K4 kissing-loop reporter (input ligand: arginine 13.2 mM) [nM]	apparent KD of K4 kissing-loop reporter (input ligand: none) [nM]	apparent KD of K4 kissing-loop reporter [1] [nM]	apparent KD of K4 kissing-loop reporter [2] [nM]
AAGUUAUGAUCUGAUACCAGACUUUAUCUUGUUUAUAAGUCAAGUGAUGUUUGACUAUUAGUCCCUUGGCAGCAGUAUUGUUUAA [#18 K4 Theophylline B Same State]	263	268	302	228	255
AAGUUGAACUGAAGGAGCGAGAAAUAGAAUGUAAGAAUAUAUGCUAGUGAUGUUAGAAAUUCUCAGGUAGGUCGCAGUAAGAAUU [V1]	368	357	442	510	317
AAUAAUGGAGUGAUGUUCCAGUAAUGGGAUACCAGACAUGAAAAUGUCCCUUGGCAGCUCAAAGGUCUAGUGAUGUUAUAAAGAA [KL-SSTheo-A6]	475	510	554	401	377
AAUAUAUAGUGAAGGAGCGCGAUAAGCAGUGAUGUUGCUUAGUUAUUAGUGUUUAUUUUUACGCAGGUAGGUCGCACUAUAUAUA [JR_ExcArginiB_Sub017]	115	105	114	101	114
AAUAUCUAGUAUAUUUUUAAUAAAACAGAUACCAGUGAUAAUAGACACCCUUGGCAGCUGGUCGAGUGAUGUUCGUUUAUAUUAA [JR_SSTheophyA_Sub006]	85.5	83.6	104	176	57.3
AAUAUGAAGCAGUGAUGUUGCUUAUGAGAAGGAGCGCACGAAAGUGCAGGUAGGUCGCUCAGCCAAGUGGACGAAAACGUCCACA [whbob_SS_Arginine_A_sa107]	98.3	99.9	86.6	87.2	91
AAUGCAUAGUGAAGGAGCGCGAUUUGCAGUGAUGUUGCAAAUUUAAACAAUCUUAUCUUUUCGCAGGUAGGUCGCACUAUGCAUA [JR_Nu_SSArginiB_Sub021]	94.1	90.3	88.2	80.9	88.7
AAUGUACAGGGAAGGAGCGUAGUCCAGUGAUGUUGGAGUUAAAUACCAGUGAUGUUGGUUAUACAGGUAGGUCGCCCUAAAGUGC [Exclusion Arginine B Gf 4]	87	65.3	80.9	84.3	76
AAUUUAUAUUUAUUCUUUAAAUGUUCAGAAGGAGCGUGAAUUAUCACAGGUAGGUCGCUGAGCUAGUGAUGUUAGCUAUAUACUA [JR_ExcArginiA_Sub007]	50.3	95.3	67.7	97	47.5
ACAAAAGUGAUGUUUUUGAACGUGCGCGAUACCAGAAAUGUCUUCUUCCCUUGGCAGCGCUAUUACUUGUAAGAAAGUACGUUUC [theeternabot_sameState_KL_Theo_A_17]	969	528	870	774	490
ACAAUGAUCAAAGGAUAUCGUAAGUUAUACAUCACGCGAUGAUUCAGAGGCGAGUGAUGUUUGUCUCGAGAAGGUUGGUACCGUC [theeternabot_exclusion_KL_FMN_B_37]	366	539	521	599	568
ACACUAUCGUCAUAGACGGUAGUGAAAGCUGAGGAUAUGAGUGAUGUUAGAAGGUAGCAAGACUGUAUCGAAUAGAUACAGUCAA [FmnA 5 #K4BetweenAptamer #OpenEnded]	227	111	163	162	141
ACAUGACGUGCGCCCGUCAUGAAACGUGCAAAGGAUAUUCCGUUUUGAAGAAGGUUGCGGUAGUGUAGUGAUGUUGCUCCGCCGU [theeternabot_sameState_KL_FMN_A_11]	512	360	343	315	347
ACCAUCAAAGAUGGCCAGGACUCCGCUGAUACCAGAGUGGAAACACUCCCUUGGCAGCAGGUGAGUGAUGUUCACAGUCCAUGGA [Omel KL Theo A SS B v4]	374	348	421	380	341
ACCGCAUUGGGAUGAUCCCAAUGCGCUGGUCGAGGACCGGUACGGCCGCCACUCGUCCAGUGAUGUUGGAAUUGGGCUACUGAAG [KL-XTryp-A11]	134	86.7	183	195	61.1
ACGACGCAUAGUGAUACCAGCAUUAUAUGAGUGAUGUUCUACCUAAAAUGGUAAUAAUUAUGCCCUUGGCAGCACUAUGCGUCAG [KL-SSTheoB3]	340	400	409	501	247
ACGAUUUACAGAAGGAGCGUGUAUUUAUCUACAAUUUUCUUAGCGAGUGAUGUUCGUUAUACACAGGUAGGUCGCUGUAUAUCGA [JR_ExcArginiB_Sub013]	185	214	201	199	174
ACGCCGAGGACGGCCGCCACUAUGACGAAGUCCGUUCCUAUUACUGCGCGAGUGAUGUUCACGACUAGGACCGGGUCUAUGAGCU [theeternabot_exclusion_KL_Trp_B_28]	775	708	843	771	631
ACGGCGCUGGAACCAGUAAUGGGAAGAAUGCGAGGACCGGUACGGCCGCCACUCGCUUCCAGUGAUGUUGGAAGUGAGCCAACAA [Geerzaedre]	272	275	304	277	181
ACGGGUCGACGAAGGAGCGCCGUGCAGUGAUGUUGCAGUUAGAUCCAGUGAUGUUUGGGCCGGCAGGUAGGUCGCGUCGACUCAU [Exclusion Arginine B GF 21]	344	225	278	291	243
ACGUCACGUAAACUCGUGGUUUCGAUCGAUACCAGUAGCGAGAGUUACCCUUGGCAGCGACAUGAGUGAUGUUCAUGUACGAAGA [KL-XTheoA1]	101	89.1	97	102	91.7

Sequence	apparent KD of K4 kissing-loop reporter (input ligand: FMN 200 uM) [nM]	apparent KD of K4 kissing-loop reporter (input ligand: arginine 13.2 mM) [nM]	apparent KD of K4 kissing-loop reporter (input ligand: none) [nM]	apparent KD of K4 kissing-loop reporter [1] [nM]	apparent KD of K4 kissing-loop reporter [2] [nM]
ACGUCACGUAUACUCGUGGUUUCGAUCGAUACCAGUAGCGAGAGUUACCCUUGGCAGCGACAUGAGUGAUGUUCAUGUGCGAAGA [KL-XTheo-A3 #analogue]	118	106	112	104	111
ACGUCACGUAUACUGGUGGUUUCGAUCGAUACCAGUAGCGAGAGUUACCCUUGGCAGCGACAUGAGUGAUGUUCAUGUAUGAAGA [KL-XTheo-A1 #analogue]	100	111	102	113	95.7
ACGUCCGGGUUAAUCGUGGGCGUGGUGGAUACCAGUUCUUCAAUGAACCCUUGGCAGCCACGUGAGUGAUGUUCACGUGCGAUGA [#15 K4 Theophylline A Exclusion]	98.7	83.3	89.5	88.7	88.6
ACUGAGCAUGCGGCCGCCACUUCAGAACGUCGCCCAAAGGGCGACGCCUCCACAGUGAUGUUGUGGAGGACCGGGCAUGUUCAGA [Omei KL Tryp B Exc A v2]	152	113	136	111	144
ACUUGAGCACAUAGCACACCAAGCAGUAGGUAGGAUAUCCGGCUUAGGAGAAGGACCAUGCAGUGAUGUUGCAUGCUCCUCCAUG [Zaribies]	258	95.8	76	92.3	99.9
AGAAAAGGGACGAUCGUCGAGUUGCCAGAAGGAGCGGUAAUUUUACCAGGUAGGUCGCUGGCCCAGUGAUGUUGGGCUUUUAAGA [Biisinaor]	105	96.5	125	133	92.4
AGAAACUUGUAUACAGGGCAUGCCAGAGAUACCAGUCAAAUGGAAGGCCCUUGGCAGCUCAGGCGAGUGAUGUUCGCAGGCUGAC [Exclusion Theophylline A GF 20]	132	113	142	145	105
AGAACUGUCUGAGAUACCAGCCAUAGGAGUGAUGUUCCUAGCUCCACAAAGUGGAGCCAUAGCCCUUGGCAGCUCAGACAGUUCA [Omei KL Theo B SS A v7]	1040	763	1150	771	823
AGACUACCACACUGUCAAUAGACAGUGAACUAGGAUAUGCUGAUAAGCAGAAGGAGUGAUGUUCCUUGGUAGUCAAUAAAAUAAU [FmnAX 13 U67]	308	270	298	330	289
AGACUACCACACUGUCAAUAGACAGUGAAUUAGGAUAUGCUGAUAAGCAGAAGGAGUGAUGUUCCCAGGUAGUCAAUAAAAUAAU [FmnAX 13 U30+C66]	169	124	167	202	177
AGACUACCACACUGUCAAUAGACAGUGAGCUAGGAUAUGCUGAUAAGCAGAAGGAGUGAUGUUCCUCGGUAGUCAAUAAAAUAAU [FmnAX 13 G29+C67]	373	357	364	503	378
AGACUACCACACUGUCAAUAGACAGUGAGGUAGGAUAUGCUGAAAAGCAGAAGGACCAGUGAUGUUGGUAGGUAGUCAAAAUAAA [FmnAX 11 #SwitchBubble #StaticStem #K4Early]	185	112	84.8	128	74.9
AGAGAUAUAUGAGGAUAUGGGUUUGUUAAUGAGUUAGUUUUAGUGUUGUUUGGUUAGUGAUGUUAUUUAGAAGGCGUGAGUGAUG [aatrmullin]	94.2	62.3	61.4	78.4	62.2
AGAGUCAGACAAAAGUCUGGCUCAGCCGAAGGAGCGUCCGAAAGGACAGGUAGGUCGCGGUUGCAUGAGUGAUGUUGAUGUUUUU [KL-SSArg-A23]	546	372	425	559	500
AGAGUUAUGCGAGGAUAUGCAGUUAGUACUCAAAGAGUACUAACGGCAGAGUGAUGUUCUGUGAAAGCAGAAGGUGCAUAACUCA [Omei KL FMN B SS B v8]	195	837	1370	857	923
AGAUUCGACACGGCCGCCACUUCCGGUGGCUGGUGUCAUGGUGCGCGUGAGUGAUGUUUAUGUGGGAGGACCGGGUGUUGAGUCU [whbob_Ex_Tryp_B_w42]	616	393	654	559	704
AGCAAAACCAAAGGAUAUUGGCAGUCGAUGUACCAUGUUCCCGUAGCAGGUUGAGUGAUGUUUAAGCAAGAAGGUUGGCGUUUGG [theeternabot_exclusion_KL_FMN_B_12]	560	302	436	457	368
AGCAGUGAUGUUGCAUUUAAAAUGACCGAUACCAGUAUCGAUAGAUACCCUUGGCAGCGGAUUUCCGCAACGACUAGGAAACUAG [Ex Theophylline A K4 15]	324	377	436	504	327
AGCCAGCGUACAUCACUCUGGCUGCUGGAUACCAGCUCGGAAACGAGCCCUUGGCAGCCAGAACUUGCAGUGAUGUUGCAAGUAA [Design12]	460	276	402	458	345
AGCGCCUAAGCCGAUACCAGAAACGCGGUGCGUCGCACGAUUAACUAGGAAAGUGAUGUUUUCCCUUGGCAGCGGGACCUGUGAG [theeternabot_exclusion_KL_Theo_B_11]	119	116	134	133	135
AGCGCUGCCUGAGGAUAUAGAAACGAGUGAUGUUCGUGGAUUGAUACCAGUGAUGUUGGCCUAUUUCUAGAAGGCAGGCGAUCGU [Exclusion FMN B GF2]	172	97.1	136	88.2	114
